Results reported in article doi:10.1101/2025.01.30.635686 (bioRxiv, 2025).
Like-named read-outs stand apart in the source and are kept apart here.

B1: ^hexYME1L (hex-tag, 10-residue linker and the catalytic domain of human YME1L, residues 317-773) (other, homo sapiens)
chain: GELKAIAQELKAIAKELKAIAWELKAIAQGAGGSGSYFQSNARFRTTTGLDSAVDPVQMKNVTFEHVKGVEEAKQELQEVVEFLKNPQKFTILGGKLPKGILLVGPPGTGKTLLARAVAGEADVPFYYASGSEFDEMFVGVGASRIRNLFREAKANAPCVIFIDELDSVGGKRIESPMHPYSRQTINQLLAEMDGFKPNEGVIIIGATNFPEALDNALIRPGRFDMQVTVPRPDVKGRTEILKWYLNKIKFDQSVDPEIIARGTVGFSGAELENLVNQAALKAAVDGKEMVTMKELEFSKDKILMGPERRSVEIDNKNKTITAYHESGHAIIAYYTKDAMPINKATIMPRGPTLGHVSLLPENDRWNETRAQLLAQMDVSMGGRVAEELIFGTDHITTGASSDFDNATKIAKRMVTKFGMSEKLGVMTYSDTGKLSPETQSAIEQEIRILLRDSYERAKHILKTHAKEHKNLAEALLTYETLDAKEIQIVLEGKKLEVR
B2: ^hexYME1L_(E439A) M701C (other, homo sapiens)
chain: GELKAIAQELKAIAKELKAIAWELKAIAQGAGGSGSYFQSNARFRTTTGLDSAVDPVQMKNVTFEHVKGVEEAKQELQEVVEFLKNPQKFTILGGKLPKGILLVGPPGTGKTLLARAVAGEADVPFYYASGSEFDEMFVGVGASRIRNLFREAKANAPCVIFIDALDSVGGKRIESPMHPYSRQTINQLLAEMDGFKPNEGVIIIGATNFPEALDNALIRPGRFDMQVTVPRPDVKGRTEILKWYLNKIKFDQSVDPEIIARGTVGFSGAELENLVNQAALKAAVDGKEMVTMKELEFSKDKILMGPERRSVEIDNKNKTITAYHESGHAIIAYYTKDAMPINKATIMPRGPTLGHVSLLPENDRWNETRAQLLAQMDVSMGGRVAEELIFGTDHITTGASSDFDNATKIAKRMVTKFGMSEKLGVCTYSDTGKLSPETQSAIEQEIRILLRDSYERAKHILKTHAKEHKNLAEALLTYETLDAKEIQIVLEGKKLEVR
B3: ^hexYME1L_(E439A) M452C (other, homo sapiens)
chain: GELKAIAQELKAIAKELKAIAWELKAIAQGAGGSGSYFQSNARFRTTTGLDSAVDPVQMKNVTFEHVKGVEEAKQELQEVVEFLKNPQKFTILGGKLPKGILLVGPPGTGKTLLARAVAGEADVPFYYASGSEFDEMFVGVGASRIRNLFREAKANAPCVIFIDALDSVGGKRIESPCHPYSRQTINQLLAEMDGFKPNEGVIIIGATNFPEALDNALIRPGRFDMQVTVPRPDVKGRTEILKWYLNKIKFDQSVDPEIIARGTVGFSGAELENLVNQAALKAAVDGKEMVTMKELEFSKDKILMGPERRSVEIDNKNKTITAYHESGHAIIAYYTKDAMPINKATIMPRGPTLGHVSLLPENDRWNETRAQLLAQMDVSMGGRVAEELIFGTDHITTGASSDFDNATKIAKRMVTKFGMSEKLGVMTYSDTGKLSPETQSAIEQEIRILLRDSYERAKHILKTHAKEHKNLAEALLTYETLDAKEIQIVLEGKKLEVR
B4: ^hexYME1L_(E439A) M500C (other, homo sapiens)
chain: GELKAIAQELKAIAKELKAIAWELKAIAQGAGGSGSYFQSNARFRTTTGLDSAVDPVQMKNVTFEHVKGVEEAKQELQEVVEFLKNPQKFTILGGKLPKGILLVGPPGTGKTLLARAVAGEADVPFYYASGSEFDEMFVGVGASRIRNLFREAKANAPCVIFIDALDSVGGKRIESPMHPYSRQTINQLLAEMDGFKPNEGVIIIGATNFPEALDNALIRPGRFDCQVTVPRPDVKGRTEILKWYLNKIKFDQSVDPEIIARGTVGFSGAELENLVNQAALKAAVDGKEMVTMKELEFSKDKILMGPERRSVEIDNKNKTITAYHESGHAIIAYYTKDAMPINKATIMPRGPTLGHVSLLPENDRWNETRAQLLAQMDVSMGGRVAEELIFGTDHITTGASSDFDNATKIAKRMVTKFGMSEKLGVMTYSDTGKLSPETQSAIEQEIRILLRDSYERAKHILKTHAKEHKNLAEALLTYETLDAKEIQIVLEGKKLEVR

Experiments:
SEC = target: the molecule itself; assay: SEC
[1] = target: the molecule itself

Row | Protein | stoichiometry N (SEC) | stoichiometry N [1]
1 | B1 | 6 | –
2 | B2 | – | 6
3 | B3 | – | 6
4 | B4 | – | 6
